Source: patent publication US20080201790A1, “Method and product for regulating cell responsiveness to external signals” (priority 1993, published 2008)

How the values were obtained:
p38 MAPK = assay: Tyrosine phosphorylation of p38 MAPK in COS cells transfected with MEKK 1 or MEKK 3; assay type: cell-based; settings: forty-eight hours after transfection
Description: (§1) COS cells were transfected with the expression plasmid pCVM5 ligated to cDNA clones encoding either MEKK 1 or MEKK 3 protein, or a control pCVM5 plasmid lacking MEKK cDNA inserts. Forty-eight hours after transfection, the COS cells were lysed and the lysate fractionated on a Mono Q FPLC column using conditions described in Example 4. The fractions were analyzed for tyrosine phosphorylation of MAP kinase-like enzymes using the kinase assay described in Example 4.

MEK-1 = assay: Phosphorylation of catalytically inactive MEK-1 by Mono Q fractions of MEKK-transfected COS cells; assay type: biochemical, mouse
Description: A cDNA encoding MEK-1 was obtained from mouse B cell cDNA templates with the polymerase chain reaction and oligodeoxynucleotide primers corresponding to portions of the 5′ coding region and 3′ untranslated region of MEK-1. […] Lysates from COS cells transfected with MEKK or mock-transfected (control) were subjected to FPLC on a Mono Q column as described above. […] Reactions were stopped by the addition of 5×SDS sample buffer (10 μl), 1×SDS buffer contains 2 percent SDS, 5 percent glycerol, 62.5 mM tris-HCl (pH 6.8), 5 percent β-mercaptoethanol, and 0.001 percent bromophenol blue. The samples were boiled for 3 minutes and subjected to SDS-PAGE and autoradiography.
Phosphorylation of kinase MEK-1 and MEKK was visable after 5 minutes and maximal after about 20 minutes. The time-dependent increase in MEKK phosphorylation correlated with a decreased mobility of the MEKK protein during SDS-PAGE. […] The slowly migrating species of MEKK were also detected by immunoblotting. Thus, expression of MEKK appears to activate MAPK by activating MEK.

[1] = test system: p42 and p44 forms of MAPK; assay: Phosphorylation of p42 and p44 MAPK in COS cells transfected with MEKK 1 or MEKK 3; assay type: cell-based; settings: forty-eight hours after transfection
Description: as §1

GST-Ras^V12 = assay: Binding of COS cell-expressed MEKK1 proteins to GST-Ras^V12 agarose; settings: COS cell lysates, immunoblot
Text: COS cells were transiently transfected by the DEAE-dextran protocol as generally described in Example 3. Cos cells were transfected with: (1) p-MEKK1 containing a nucleic acid molecule encoding MEKK1 as described in Lange-Carter et al. (Science 260:315-319, […]); (2) p-MEKKNH2 containing a nucleic acid molecule that encodes a 858 base pair Pvull(682)-Ncol(1541) restriction digest fragment of the amino terminus of MEKK1 ligated into pCMV5; (3) p-MEKKCOOH containing a nucleic acid molecule that encodes a 1435 base pair Ncol(1541)-Sspl(2976) restriction digest fragment that includes the entire kinase domain of MEKK1 ligated into pCMV5; (4) pCMV5 without insert; or (5) p-C4Raf containing a nucleic acid molecule that encodes the amino terminus of Raf-1 ligated into pCMV5. COS cells expressing the various MEKK1 proteins were […] COS cells expressing the various MEKK1 proteins were lysed in EB (1% Triton X-100, 10 mM Tris HCl [pH 7.4], 5 mM EDTA, 50 mM NaCl, 50 mM NaF, 0.1% bovine serum albumin, 0.2 U/ml aprotinin, 1 mM phenylmethylsulfonyl fluoride and 2 mM Na3 VO4). The lysates were separated into two equal parts for separate binding reactions. Half of the lysate was incubated with GST agarose (1.5 μg) while half of the lysate was incubated with GST-Ras^V12 agarose (1.5 μg) (purchased from UBI) for 1 hr at 4° C. The GST-Ras^V12 was preincubated at 30° C. for 30 min with 1 mM nucleotide (GDP or GTPγS). The nucleotide binding reaction was stopped by adding MgCl2 to a final concentration of 20 mM. After the 1 hr binding reaction the agarose beads were pelleted at 2000 rpm for 2 min and washed 3 times with PBS+1.0% Triton X-100. The washed agarose beads were boiled in Laemmli SDS sample buffer and the proteins resolved by SDS polyacrylamide gel electrophoresis. Proteins were transferred onto nitrocellulose for immunoblotting with antibodies specific for an NH2 terminal fusion protein (described in Example 1) or a COOH terminal peptide (described in Example 1).

MAPK = MAPK activity in COS cells transfected with MEKK or Raf (Mono Q FPLC fractions); assay type: cell-based; settings: overexpression in COS1 cells, deprived of serum, no added growth factor
Description: COS cells in 100-mm culture dishes were transfected with either the pCVMV5 expression vector alone (1 μg: control) or the pCVMV5 MEKK construct (1 μg: MEKK). After 48 hours, the cells were placed in serum-free medium containing bovine serum albumin (0.1 percent) for 16 to 18 hours to induce quiescence. […] After centrifugation for 10 minutes at maximum speed in a microfuge, COS cell lysates containing 0.5 to 1 mg of soluble protein were subjected to FPLC on a MONO Q column, and eluted fractions were assayed for MAPK activity according to the method described in Heasley et al., p. 545, 1992, Mol. Biol. Cell, Vol. 3.
COS cells were prepared using the method described in Example 3. […] FPLC MONO Q ion-exchange column fractions were prepared as described in Example 3 and assayed for MAPK activity according to the method described in Heasley et al., ibid.

[2] = fraction 22, 0.15 μg catalytically inactive MEK-1

B1: MEKK 1: MEK kinase 1 protein, SEQ ID No. 2 / 4 (protein)
chain: MVTAVPAVFSKLVTMLNASGSTHFTRMRRRLMAIADEVEIAEVIQLGVEDTVDGHQDSLQAVAPTSCLENSSLEHTVHREKTGKGLSATRLSASSEDISDRLAGVSVGLPSSTTTEQPKPAVQTKGRPHSQCLNSSPLSHAQLMFPAPSAPCSSAPSVPDISKHRPQAFVPCKIPSASPQTQRKFSLQFQRNCSEHRDSDQLSPVFTQSRPPPSSNIHRPKPSRPVPGSTSKLGDATKSSMTLDLGSASRCDDSFGGGGNSGNAVIPSDETVFTPVEDKCRLDVNTELNSSIEDLLEASMPSSDTTVTFKSEVAVLSPEKAENDDTYKDDVNHNQKCKEKMEAEEEEALAIAMAMSASQDALPIVPQLQVENGEDIIIIQQDTPETLPGHTKAKQPYREDAEWLKGQQIGLGAFSSCYQAQDVGTGTLMAVKQVTYVRNTSSEQEEVVEALREEIRMMGHLNHPNIIRMLGATCEKSNYNLFIEWMAGGSVAHLLSKYGAFKESVVINYTEQLLRGLSYLHENQIIHRDVKGANLLIDSTGQRLRIADFGAAARLASKGTGAGEFQGQLLGTIAFMAPEVLRGQQYGRSCDVWSVGCAIIEMACAKPPWNAEKHSNHLALIFKIASATTAPSIPSHLSPGLRDVAVRCLELQPQDRPPSRELLKHPVFRTTW
p38 MAPK
  phosphorylation of p38 MAPK: only induces weak phosphorylation of p38 MAPK
MEK-1; Mono Q fractions of transfected COS cells
  phosphorylation of MEK-1: capable of phosphorylating MEK-1
MEK-1; [2]
  time at which phosphorylation of kinase MEK-1 and MEKK was visible: 5 min
  time of maximal phosphorylation of kinase MEK-1 and MEKK: about 20 minutes
[1]
  phosphorylation of p42 and p44 MAPK: does induce phosphorylation of p42 and p44 MAPK
GST-Ras^V12
  binding to GST-Ras^V12(GTPγS) relative to GST-Ras^V12(GDP): at least 5 fold
  binding to GST-Ras^V12 (in words): capable of binding GST-Ras^V12 in a GTP dependent manner
MAPK
  MAPK activity relative to control cells transfected with plasmid lacking a MEKK 1 cDNA insert: four to five times greater
